One block for each binder: values may come before it.
B3: His-RLIP76 GAP insert (RLIP76 GAP domain with the F-G loop of p50 RhoGAP) (domain or fragment)
chain: PNLKPIFGIPLADAVERTMMYDGIRLPAVFRECIDYVEKYGMKCEGIYRVSGIKSKVDELKAAYDREESTNLEDYEPNTVASLLKQYLRDLPENLLTKELMPRFEEACGRTTETEKVQEFQRLLKELPECNYLLISWLIVHMDHVIAKELETKMNIQNISIVLSPTVLWAKDAAITLKAINPINRVLYVFFTHVQELFGNVVLKQVMKPL
notes: Made from the pET16b RLIP GAP domain construct; also called GAP insert mutant; RLIP76 GAP insert domain

Assays:
[1] = biological target: B3; assay: scintillation proximity assay (competition); competitor titrated into 30 nM [3H]GTP·Rac1 or [3H]GTP·Cdc42 and 30 nM GST-p50 RhoGAP immobilised on fluoromicrospheres via an anti-GST antibody; partial competition model for RLIP76 GAP and didomain, full competition for GAP insert and free p50 RhoGAP; conditions: both partners purified
GST-PAK1 = biological target: T1, GST-PAK1 (UniProt Q13153 1-545); assay: scintillation proximity assay (direct); GST-PAK1 on SPA beads as control binding partner; concentration of Q61L Rac1/Cdc42·[3H]GTP varied; apparent Kd; conditions: both partners purified
T1 construct: PAK1, positive control effector of Cdc42 and Rac1

[2] = biological target: T2, His-RLIP76 GAP-GBD didomain (residues 184-446) (human, UniProt Q15311 184-446); assay: not stated; data not shown
T2 construct: Construct details are in Rajasekar et al., 2012; also called RLIP76 didomain; RhoGAP-GBD didomain; source: expressed and purified as described previously (Rajasekar et al., 2012)
T2 sequence (looked up): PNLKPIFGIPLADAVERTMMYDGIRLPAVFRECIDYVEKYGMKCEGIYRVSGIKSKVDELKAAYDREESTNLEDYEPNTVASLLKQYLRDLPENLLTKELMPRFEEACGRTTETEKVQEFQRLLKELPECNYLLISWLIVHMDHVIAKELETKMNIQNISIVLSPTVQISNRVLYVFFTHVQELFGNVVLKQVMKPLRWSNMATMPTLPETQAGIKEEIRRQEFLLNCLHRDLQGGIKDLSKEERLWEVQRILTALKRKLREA

Q61L Rac1·[3H]GTP = Q61L Rac1·[3H]GTP (UniProt P63000 1-192, Q61L); assay: scintillation proximity assay (competition); competitor titrated into 30 nM [3H]GTP·Rac1 or [3H]GTP·Cdc42 and 30 nM GST-p50 RhoGAP immobilised on fluoromicrospheres via an anti-GST antibody; partial competition model for RLIP76 GAP and didomain, full competition for GAP insert and free p50 RhoGAP; conditions: both partners purified

Kd [1]: 1270 nM | Kd (GST-PAK1): 32 nM
B1: Q61L Cdc42·[3H]GTP (natural protein)
chain: not shown
notes: Cdc42, GTPase-deficient mutant Q61L, loaded with [3H]GTP; Q61L is stated for the SPA experiments in general; also called [3H]GTP·Cdc42

Kd [2]: ~200 nM
B2: RalB (natural protein, UniProt P11234 1-206, looked up)
chain: MAANKSKGQSSLALHKVIMVGSGGVGKSALTLQFMYDEFVEDYEPTKADSYRKKVVLDGEEVQIDILDTAGQEDYAAIRDNYFRSGEGFLLVFSITEHESFTATAEFREQILRVKAEEDKIPLLVVGNKSDLEERRQVPVEEARSKAEEWGVQYVETSAKTRANVDKVFFDLMREIRTKKMSENKDKNGKKSSKNKKSFKERCCLL
notes: RalB small GTPase

Binder: B3
Kd (Q61L Rac1·[3H]GTP): 1440 nM
